In patent US20220348663A1 (Y BIOLOGICS, published 2022):

T1: human B7-H3 antigen (Octet) (human, UniProt Q5ZPR3 29-466, limits assumed)
T1 construct: Soluble antigen in the BLI assay
T1 sequence: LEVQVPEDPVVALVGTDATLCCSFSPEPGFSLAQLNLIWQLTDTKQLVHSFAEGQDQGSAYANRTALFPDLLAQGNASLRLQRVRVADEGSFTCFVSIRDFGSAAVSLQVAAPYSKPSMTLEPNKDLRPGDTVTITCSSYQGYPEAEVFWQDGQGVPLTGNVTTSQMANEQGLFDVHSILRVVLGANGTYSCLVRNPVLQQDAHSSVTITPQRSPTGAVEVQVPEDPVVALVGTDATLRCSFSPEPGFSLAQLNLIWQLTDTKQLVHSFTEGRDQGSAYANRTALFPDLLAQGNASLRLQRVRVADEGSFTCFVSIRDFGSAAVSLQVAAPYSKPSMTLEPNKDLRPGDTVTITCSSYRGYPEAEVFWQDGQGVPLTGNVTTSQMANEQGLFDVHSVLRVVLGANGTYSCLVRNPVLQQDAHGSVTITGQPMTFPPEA

T2: Mouse B7-H3 (#50973-M08H, Sino) (mouse, UniProt Q8VE98 29-244)
T2 construct: Bought protein; also called mouse B7-H3 antigen
T2 sequence (looked up): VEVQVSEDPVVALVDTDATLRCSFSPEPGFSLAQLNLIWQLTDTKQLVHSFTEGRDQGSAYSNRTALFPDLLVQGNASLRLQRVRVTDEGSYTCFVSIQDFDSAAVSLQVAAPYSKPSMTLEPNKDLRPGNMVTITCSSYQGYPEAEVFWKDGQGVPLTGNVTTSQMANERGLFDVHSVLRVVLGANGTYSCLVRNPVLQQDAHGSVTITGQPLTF

T3: rat B7-H3 (#80380-R08H, Sino) (rat, UniProt Q7TPB4 29-244)
T3 construct: Bought protein; also called rat B7-H3 antigen
T3 sequence (looked up): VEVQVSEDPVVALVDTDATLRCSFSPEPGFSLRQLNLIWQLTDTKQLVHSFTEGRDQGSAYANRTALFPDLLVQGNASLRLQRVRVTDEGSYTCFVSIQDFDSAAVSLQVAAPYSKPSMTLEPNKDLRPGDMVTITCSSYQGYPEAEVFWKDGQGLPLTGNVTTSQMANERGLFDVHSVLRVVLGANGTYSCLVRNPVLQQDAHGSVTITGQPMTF


Tests used:
[1] = molecular target: T1, human B7-H3 antigen (Octet); assay: BLI (Octet QK), antibody captured on AHC biosensor, B7-H3 antigen 30-0.24 nM, 1:1 global fit
[2] = molecular target: T2, Mouse B7-H3 (#50973-M08H, Sino); assay: ELISA on coated Mouse B7H3, OD450nm
[3] = molecular target: T3, rat B7-H3 (#80380-R08H, Sino); assay: ELISA on coated Rat B7H3, OD450nm

| Kd [1] [nM] | binding result [2] | binding result [3] | Binder |
| --- | --- | --- | --- |
| 0.06 |  |  | CD276-040F10 (antibody, V domains shown, Converted from scFv to IgG form) VH: QVQLVESGAEVKKPGASVKLSCKASGYTFSSYWMHWVRQAPGQRLEWMGEINPGNGHTNYNEKFKSRVTITVDKSASTAYMELSSLRSEDTAVYYCVADPRRPKVPTALFVYWGQGTLVTVSS VL: DIQMTQSPSSVSASVGDRVTISCRASQGIGTWLAWYQQKPGKAPRLLIYAASSLDSGVPSRFSASGSGTDFTLTISSLQPEDFATYYCQQAINFPITFGQGTRLEIK |
|  | binds | binds | CD276-039C05 (antibody, V domains shown, Converted from scFv to IgG form; Parent of the _LS_ light-chain variants) VH: QVQLVESGAEVKKPGSSVKVSCKASGGTFSSYAISWVRQAPGQGLEWMGRIIPILGIANYAQKFQGRVTITADKSTSTAYMELSSLRSEDTAVYYCANGGDSSSWYTFDYWGQGTLITVSS VL: DIQMTQSPSTLSASVGDKLTLTCRASQSISRWLAWYQQKPGKAPKLLIYKASYLQTGVPSRFSGSGTGTEFTLTISSLQPDDFATYYCQQYNTFPLTFAGGTKVEIK |
